3 molecules from patent CN111620945A (JIANGSU DISEASE CONTROL AND PREVENTION CENTER JIANGSU …, dated 2020) can be followed below.

What is called Kd is the constant that tells how readily two partners part at equilibrium. Lower therefore signals tighter binding.

In assay [1] the target is SARS-CoV-2 Spike蛋白(刺突蛋白) of the isolate BetaCoV/JS03/human/2020, on live virus (SARS-CoV-2, UniProt P0DTC2 14-1273). In words: cell-based or functional assay.
Assay [2] shares this target. In words: cell-based or functional assay. The source holds these as a separate data set.
For assay [3], the target named is 重组SARS-CoV-2刺突蛋白胞外区 (extra cellular domain of spike protein, S-ECD) (SARS-CoV-2, UniProt P0DTC2 14-1213). In words: SPR, Biacore 8K, S-ECD immobilised on a CM5 chip, antibody 125-7.8 nM.
Assay [4] has the same target. The description is as above. This is another data set of the same source.

B1: FC05 (antibody, V domains shown)
VH: VQLLEQSGAEVKKPGASVRVSCKVSGYTLPEVAMHWVRQAPGKGLEWMGGFDPEDGETIYAQKFQGRVTMTEDTSTDTAYMELSSLRSEDTAVYYCATTTPFSSSFWFDPWGQGTLVTVSS
VL: QSVLTQAPSVSGAPGQKVTISCSGSSSNIGNNYVSWYQQLPGTAPKLLIYDNNKRPSGIPDRFSGSKSGTSATLGITGLQTGDEADYYCGTWDSSLSAVVFGGGTKLTVL
For B1, the “IC50(ng/ml), 体外中和实验 (live virus, Vero E6, CPE)” value (shortened to “IC50(ng/ml), 体外中和实验”) in assay [1] was determined as 142 ng/mL.

B2: FC08 (antibody, V domains shown)
VH: VQLLQQSGAEVKKPGSSVKVSCKASGGTFSSYAISWVRQAPGQGLEWMGGIIPILGIANYAQKFQGRVTITADKSTSTAYMELSSLRSEDTAVYYCVRERGYSGYGAAYYFDYWGQGTLVTVSS
VL: QSVLTQPPSVSGAPGQRVTISCTGSSSNIGAGYDVHWYQQLPGTAPKLLIYGNSNRPSGVPDRFSGSKSGTSASLAITGLQAEDEADYYCQSYDSSLSGSVFGGGTKLTVL
notes: also called FC08抗体
For B2, in assay [2], the “IC50(ng/ml), 体外中和实验” value was found to be 325 ng/mL. In assay [3], this molecule displayed a Kd of 0.8 nM.

B3: FC11 (antibody, V domains shown)
VH: EVQLLESGGGVVQPGRSLRLSCAASGFTFSYYGMHWVRQAPGTGLEWVAVISYDGSNEYYADSVKGRFTISRDNSKNTLYLQMNSLRAEDTAVYYCAKAMFLGDSSGLTGLDMDVWGQGTTVTVSS
VL: DIELTQSPGTLSLSPGERATLSCRASQSVSSYLAWYQQKPGQAPRLLIYDASNRATGIPARFSGSGSGTDFTLTISSLEPEDFALYYCQQRGNWPPTFGGGTKLEIK
For B3, the “IC50(ng/ml), 体外中和实验” value in assay [1] was determined as 818 ng/mL. The same molecule displayed a Kd in assay [4] of 0.5 nM.
